Results as given in article PMC9604145.

Target: Su(H)^wt-myc (Suppressor of Hairless, wildtype, pcDNA3.1) (D. melanogaster) (UniProt P28159)
UniProt P28159, sequence (P28159 whole entry): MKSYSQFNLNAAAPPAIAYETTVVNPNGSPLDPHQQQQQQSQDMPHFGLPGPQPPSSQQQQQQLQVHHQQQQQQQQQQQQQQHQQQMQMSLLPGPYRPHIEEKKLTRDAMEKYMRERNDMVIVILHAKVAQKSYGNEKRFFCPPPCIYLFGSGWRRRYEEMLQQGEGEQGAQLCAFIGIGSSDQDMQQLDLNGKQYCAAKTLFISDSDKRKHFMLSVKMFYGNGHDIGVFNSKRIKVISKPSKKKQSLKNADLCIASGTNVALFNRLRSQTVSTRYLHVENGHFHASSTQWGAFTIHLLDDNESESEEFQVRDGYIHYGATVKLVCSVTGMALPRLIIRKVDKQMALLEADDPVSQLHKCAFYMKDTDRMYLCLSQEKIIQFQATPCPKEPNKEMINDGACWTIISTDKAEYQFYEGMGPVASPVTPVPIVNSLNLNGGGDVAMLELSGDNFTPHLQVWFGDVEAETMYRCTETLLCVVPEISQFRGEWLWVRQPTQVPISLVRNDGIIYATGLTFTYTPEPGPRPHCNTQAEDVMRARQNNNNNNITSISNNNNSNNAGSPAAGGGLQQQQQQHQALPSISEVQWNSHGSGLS

Su(H)^wt-myc protein level (Western blot, relative to beta-tubulin) 0-6 h after cycloheximide in HeLa RBPJ^KO cells co-expressing ICN^RAMANK (% of the induced protein): 70
Substance: ICN^RAMANK (pcDNA-ICN-RAMANK) (domain or fragment)
